These are literature values, as cited in paper PMC10578080.

In this data set the target is neuronal ternary SNARE complex (Rattus norvegicus) (UniProt P32851).
Chain of UniProt P32851 (P32851 whole entry, chain 1 of 3): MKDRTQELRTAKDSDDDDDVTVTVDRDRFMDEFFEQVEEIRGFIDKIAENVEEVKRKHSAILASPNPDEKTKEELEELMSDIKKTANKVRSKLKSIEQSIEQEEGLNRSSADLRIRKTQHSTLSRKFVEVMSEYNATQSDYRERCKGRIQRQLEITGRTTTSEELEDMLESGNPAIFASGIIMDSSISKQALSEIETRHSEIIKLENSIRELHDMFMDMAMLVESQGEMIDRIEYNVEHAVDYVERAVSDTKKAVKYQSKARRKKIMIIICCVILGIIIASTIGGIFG
Chain of UniProt P32851 (B2RAU4 whole entry, chain 2 of 3, further chain): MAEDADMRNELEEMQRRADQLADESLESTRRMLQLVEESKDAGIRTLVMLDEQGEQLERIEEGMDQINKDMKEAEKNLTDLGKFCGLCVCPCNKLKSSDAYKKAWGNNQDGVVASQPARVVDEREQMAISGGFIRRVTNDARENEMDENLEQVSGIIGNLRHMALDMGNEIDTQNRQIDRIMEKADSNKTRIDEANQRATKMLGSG
Chain of UniProt P32851 (P63044 2-116, chain 3 of 3, further chain): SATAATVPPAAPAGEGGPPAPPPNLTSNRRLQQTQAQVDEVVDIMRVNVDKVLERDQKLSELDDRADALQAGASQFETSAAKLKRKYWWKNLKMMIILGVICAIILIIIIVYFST

For the substance “Cpx1 central domain (from UniProt P63041)”, the Kd was 10 nM.

By Kd is commonly meant the concentration at which binding is half-saturated.
